Test results from patent US20030059862A1 (Human Genome Sciences, published 2003).

T1: TACI fusion protein (Homo sapiens (Human), UniProt O14836 1-154)
T1 construct: also called immobilized receptor
T1 sequence: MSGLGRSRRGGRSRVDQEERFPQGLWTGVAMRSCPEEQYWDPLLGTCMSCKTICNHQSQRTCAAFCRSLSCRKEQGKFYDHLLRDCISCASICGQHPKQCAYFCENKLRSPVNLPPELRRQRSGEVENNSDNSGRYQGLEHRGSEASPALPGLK

T2: BCMA fusion protein (Homo sapiens (Human), UniProt Q02223 1-48)
T2 construct: also called immobilized receptor
T2 chain: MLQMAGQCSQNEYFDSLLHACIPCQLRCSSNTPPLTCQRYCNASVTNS

T3: biotinylated APRIL (Homo sapiens (Human), UniProt O75888 105-250, biotinylated using NHS-biotin at a molar ratio of 20:1 biotin:APRIL)
T3 construct: also called bio-APRIL
T3 sequence: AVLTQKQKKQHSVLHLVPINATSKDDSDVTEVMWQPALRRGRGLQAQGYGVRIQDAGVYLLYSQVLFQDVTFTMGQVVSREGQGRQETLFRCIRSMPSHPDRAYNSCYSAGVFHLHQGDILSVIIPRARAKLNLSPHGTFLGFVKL

T4: TACI (Homo sapiens (Human), UniProt O14836 1-154, limits assumed)
T4 sequence: T1 sequence

T5: BCMA (Homo sapiens (Human), UniProt Q02223 1-48, limits assumed)
T5 chain: T2 chain

T6: LIGHT (Homo sapiens (Human), UniProt O43557 83-240, limits assumed)
T6 chain: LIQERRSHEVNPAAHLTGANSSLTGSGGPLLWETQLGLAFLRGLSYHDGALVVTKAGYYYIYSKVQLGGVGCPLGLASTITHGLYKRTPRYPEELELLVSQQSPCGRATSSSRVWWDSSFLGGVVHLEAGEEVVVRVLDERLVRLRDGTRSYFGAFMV

B1: APRIL (Tumor Necrosis Factor Delta), human (ligand)
chain: T3 sequence
notes: Soluble purified APRIL and FLAG-tagged APRIL were used in the selections; also called TNF-delta; human APRIL
B2: A019C11 (scFv)
scFv: EVQLVQSGAEVKKPGASVKVSCKTSGYTFTDNYMHWVRQAPGQGLEWMGWISPNSSTTLYAQKFRGRVTLTRDTSVSTAYMELSGLDSDDTALYFCARGGRLAGSTVFTPAFEYWGRGTMVTVSSGGGGSGGGGSGGGGSAQAVLTQPSSVSEAPRQRVTISCSGSSSNIGNNAVKWYQQLPGKAPKLLIYYDDLLPSGVSDRFSGSKSGTSASLAISGLQSEDEADYYCAAWDDSLNGYVFGTGTKVTVLG
B3: A010D09 (scFv)
scFv: QVQLVQSGAEVKKLGSSVKVSCKASGGTFSSYAISWVRQAPGQGLEWMGGIIPIFGTANYAQKFQGRVTITADESTSTAYMELSSLRSEDTAVYYCARDLSRLGMDVWGQGTTVTVSSGGGGSGGGGSGGGGSDIQMTQSPSTLSASIGDRVTITCRASEGIYHWLAWYQQKPGKAPKLLIYKASSLASGAPSRFSGSGSGTDFTLTISSLQPDDFATYYCQQYSNYPLTFGGGTKLEIKR
B4: A027H08 (scFv)
scFv: QVQLQQSGAEVKKPGSSVKVSCKASGGTFSSYAISWVRQTPGQGLEWMGGIIPIFGAANYAQKFQGRVTITADESTSTAHMELSSLRSEDTAVYYCARGISGGMDVWGKGTLVTVSSGGGSGGGGSGGGGSDIQMTQSPSTLSASIGDRVTITCRASEGIYHWLAWYQQKPGKAPKLLIYKASSLASGAPSRFSGSGSGTDFTLTISSLQPDDFATYYCQQYSNYPLTFGGGTKLEIKR
B5: A004G02 (scFv)
scFv: QVQLVQSGAEVKKPGSSVKVSCKASGGTFSSYGIRWVRQAPGQGLEWMGGIIPIFGTANYAQKFQGRVTITADEYTSTAYMELSSLRSEDTAVYYCARSNPQYDAFDIWGQGTTVTVSSGGGGSGGGGSGGGGSSYVLTQPPSVSGTPGQRVTVSCSGGRSNIGSNTVKWYQQLPGTAPKLLIYGNDQRPSGVPDRFSGSKSGNTASLTVSGLQVEDEADYYCQSYDSSLRGSVFGGGTKLTVLG
B6: A027B01 (scFv)
scFv: QVQLLQSAAEVKKPGSSVKVSCKTSGGTFRNHAISWVRQAPGQGLEWMGGIIPIFGTANYAQKFQGRVTITADESTSTAYMELSSLRSEDTAVYYCARGISAGMDVWGRGTLVTVSSGGGGSGGGGSGGGGSDIQMTQSPSFLSASIGDRVTITCRASEGIYHWLAWYQQKPGKAPKLLIYKASSLASGAPSRFSGSGSGTDFTLTISSLQPDDFATYYCQQYSNYPLTFGGGTKLEIKR

Columns and labels:
TACI fusion protein [1] = target: T1, TACI fusion protein; experiment: receptor binding inhibition assay: unlabelled APRIL titrated against bio-APRIL (50 ng/ml, the competitor) for binding to plate-coated TACI fusion protein; streptavidin Delfia, fluorescence counts
Experimental: (§1) APRIL binds to BCMA with higher affinity than its binds to TACI so, inhibition of biotinylated APRIL (bio-APRIL) binding to BCMA can be used to screen selection outputs as periplasmic extracts for neutralizers and then assess potency of the positives as purified scFvs. To perform this assay, each well of a black 96 well flat-bottomed plate (Costar) was coated with 1.25 ng BCMA fusion protein overnight at 4° C. The wells were blocked with 3% milk in PBS for an hour at room temperature. ScFv were then added in the presence of 5 ng/ml biotinylated APRIL for 90 minutes at room temperature. Binding of biotinylated APRIL was detected via streptavidin Delfia (Wallac) added at a 1:1000 dilution in Delfia assay buffer (Wallac). After an hour at room temperature this was read on a Wallac 1420 workstation at 620 nm.
(§2) An assay similar to that described above can also be used to test if anti-APRIL antibodies of the invention are able to inhibit binding of bio-APRIL to TACI. In this case, the plate was coated with 2.5 ng TACI fusion protein per well and scFv were added in the presence of 50 ng/ml biotinylated APRIL instead of 5 ng/ml. Otherwise, the method was identical to that for the BCMA:bio-APRIL assay.

TACI fusion protein [2] = target: T1, TACI fusion protein; experiment: Unlabelled APRIL titrated against 50 ng/ml bio-APRIL for binding to coated TACI fusion protein, streptavidin-DELFIA; inhibition was only partial
Experimental: as §1, §2

BCMA fusion protein [3] = target: T2, BCMA fusion protein; experiment: receptor binding inhibition assay: unlabelled APRIL titrated against bio-APRIL (5 ng/ml, the competitor) for binding to plate-coated BCMA fusion protein; streptavidin Delfia, fluorescence counts
Experimental: as §1

BCMA fusion protein [4] = target: T2, BCMA fusion protein; experiment: Unlabelled APRIL titrated against 5 ng/ml bio-APRIL for binding to coated BCMA fusion protein, streptavidin-DELFIA
Experimental: as §1

biotinylated APRIL [5] = target: T3, biotinylated APRIL; experiment: receptor binding inhibition assay: scFv titrated with bio-APRIL (50 ng/ml); blocked binding of bio-APRIL to plate-coated TACI fusion protein; streptavidin Delfia, fluorescence counts
Experimental: as §1, §2

biotinylated APRIL [6] = target: T3, biotinylated APRIL; experiment: receptor binding inhibition assay: scFv titrated with bio-APRIL (5 ng/ml); blocked binding of bio-APRIL to plate-coated BCMA fusion protein; streptavidin Delfia, fluorescence counts
Experimental: as §1

biotinylated APRIL [7] = target: T3, biotinylated APRIL; experiment: scFv inhibition of bio-APRIL (50 ng/ml) binding to coated TACI fusion protein, streptavidin-DELFIA
Experimental: as §1, §2

biotinylated APRIL [8] = target: T3, biotinylated APRIL; experiment: scFv inhibition of bio-APRIL (5 ng/ml) binding to coated BCMA fusion protein, streptavidin-DELFIA
Experimental: as §1

TACI = target: T4, TACI; experiment: Specificity phage ELISA (scFv on phage, anti-M13-HRP, A450)
Experimental: (§3) Flexible 96-well plates (Falcon) were coated overnight at 4° C. with each antigen (1 μg/ml). All antigens were coated in PBS. After coating, the solutions were removed from the wells, and the plates were blocked for 1 hour at room temperature in MPBS. The plates were washed 3 times with PBS and then 50 μl of pre-blocked phage was added to each well. The plates were incubated at room temperature for 1 hour and then washed with 3 changes of PBST followed by 3 changes of PBS.
(§4) To each well, 50 μl of an anti-M13-HRP conjugate (Pharmacia) at a 1 in 5000 dilution in MPBS was added and the plates incubated at room temperature for 1 hour. Each plate was washed three times with PBST followed by three times with PBS.
(§5) Fifty μl of TMB substrate was then added to each well, and incubated at room temperature for 30 minutes or until color development. The reaction was stopped by the addition of 25 μl of 0.5 M H₂SO₄. The signal generated was measured by reading the absorbance at 450 nm (A₄₅₀) using a microtitre plate reader (Bio-Rad 3550).

TNF-α = target: T7, TNF-α (Homo sapiens (Human), UniProt P01375 77-233); experiment: as above
T7 construct: also called TNF-alpha
Experimental: as §3, §4, §5

BLyS = target: T8, BLyS (Homo sapiens (Human), UniProt Q9Y275 134-285); experiment: as above
T8 construct: also called Neutrokine-alpha
Experimental: as §3, §4, §5

BCMA = target: T5, BCMA; experiment: as above
Experimental: as §3, §4, §5

BSA = target: T9, BSA (UniProt P02769 25-607); experiment: as above
T9 construct: Unrelated control antigen coated at 1 µg/ml in the phage ELISAs
Experimental: as §3, §4, §5

LIGHT = target: T6, LIGHT; experiment: as above
Experimental: as §3, §4, §5

biotinylated APRIL [9] = target: T3, biotinylated APRIL; experiment: scFv inhibition of bio-APRIL (50 ng/ml) binding to coated TACI fusion protein, streptavidin-DELFIA; partial inhibition
Experimental: as §1, §2

biotinylated APRIL [10] = target: T3, biotinylated APRIL; experiment: scFv inhibition of bio-APRIL (5 ng/ml) binding to coated BCMA fusion protein, streptavidin-DELFIA; partial inhibition
Experimental: as §1

[11] = target: B1; experiment: Title of Table 1; scFv identified by phage display selection and phage ELISA (Example 1)

T8 sequence (Q9Y275 134-285 limits assumed): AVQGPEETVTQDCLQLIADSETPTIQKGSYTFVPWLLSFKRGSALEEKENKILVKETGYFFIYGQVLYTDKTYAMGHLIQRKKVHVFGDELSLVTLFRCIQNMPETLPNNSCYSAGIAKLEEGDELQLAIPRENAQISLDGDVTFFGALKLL
T7 sequence (P01375 77-233 limits assumed): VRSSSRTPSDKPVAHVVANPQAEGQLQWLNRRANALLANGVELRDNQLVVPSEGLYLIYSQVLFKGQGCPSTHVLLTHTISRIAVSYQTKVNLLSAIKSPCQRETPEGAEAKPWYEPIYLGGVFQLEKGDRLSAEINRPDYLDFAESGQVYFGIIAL
T9 sequence (P02769 25-607 limits assumed): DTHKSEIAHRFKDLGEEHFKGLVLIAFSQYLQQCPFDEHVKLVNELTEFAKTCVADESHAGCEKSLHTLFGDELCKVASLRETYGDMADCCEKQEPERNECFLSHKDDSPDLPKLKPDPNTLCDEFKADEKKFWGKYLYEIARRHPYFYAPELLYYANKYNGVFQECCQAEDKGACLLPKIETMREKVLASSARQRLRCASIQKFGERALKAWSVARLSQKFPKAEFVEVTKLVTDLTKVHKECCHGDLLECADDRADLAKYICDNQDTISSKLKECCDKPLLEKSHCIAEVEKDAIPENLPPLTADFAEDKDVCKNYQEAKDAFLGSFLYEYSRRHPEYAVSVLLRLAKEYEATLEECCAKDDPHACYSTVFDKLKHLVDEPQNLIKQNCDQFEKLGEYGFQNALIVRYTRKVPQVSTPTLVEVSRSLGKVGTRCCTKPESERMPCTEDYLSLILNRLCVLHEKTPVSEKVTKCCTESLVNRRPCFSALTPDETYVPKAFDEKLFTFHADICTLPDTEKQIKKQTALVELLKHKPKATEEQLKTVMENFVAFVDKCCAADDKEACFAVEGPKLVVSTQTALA

Binder	IC50 (biotinylated APRIL [6]) [nM]	IC50 (biotinylated APRIL [7]) [nM]	IC50 (biotinylated APRIL [8]) [nM]	binding result (TACI)	binding result (TNF-α)	binding result (BLyS)	binding result (BCMA)	binding result (BSA)	binding result (LIGHT)	IC50 (biotinylated APRIL [9]) [nM]	IC50 (biotinylated APRIL [10]) [nM]	further results
B1	–	–	–	–	–	–	–	–	–	–	–	IC50 (TACI fusion protein [1]): 0.165 nM; IC50 (TACI fusion protein [2]): 1.3 nM; IC50 (BCMA fusion protein [3]): 0.043 nM; IC50 (BCMA fusion protein [4]): 0.048 nM
B2	10	10	4.3	no binding (tested: antigen coated at 1 µg/ml)	no binding (tested: antigen coated at 1 µg/ml)	no binding (tested: antigen coated at 1 µg/ml)	no binding (tested: antigen coated at 1 µg/ml)	no binding (tested: antigen coated at 1 µg/ml)	no binding (tested: antigen coated at 1 µg/ml)	–	–	IC50 (biotinylated APRIL [5]): 7 nM
B3	3	–	–	–	–	–	–	–	–	12	2.3	–
B4	–	–	–	–	–	–	–	–	–	–	–	binding result [11]: binds
B5	–	800	19	no binding (tested: antigen coated at 1 µg/ml)	no binding (tested: antigen coated at 1 µg/ml)	no binding (tested: antigen coated at 1 µg/ml)	no binding (tested: antigen coated at 1 µg/ml)	no binding (tested: antigen coated at 1 µg/ml)	no binding (tested: antigen coated at 1 µg/ml)	–	–	–
B6	–	–	–	–	–	–	–	–	–	94	3.1	–
